From US20260347476 (published 2026) come the findings set out here.

Assay [1] concerns the target T1, IL-15Rbetagamma heterodimer (human, UniProt P14784).
T1 chain 1: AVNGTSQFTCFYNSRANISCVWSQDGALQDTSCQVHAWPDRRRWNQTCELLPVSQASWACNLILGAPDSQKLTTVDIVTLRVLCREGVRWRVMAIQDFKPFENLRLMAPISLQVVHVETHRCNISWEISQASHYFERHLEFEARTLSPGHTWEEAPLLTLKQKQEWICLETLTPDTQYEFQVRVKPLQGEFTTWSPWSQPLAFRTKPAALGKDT
T1 chain 2: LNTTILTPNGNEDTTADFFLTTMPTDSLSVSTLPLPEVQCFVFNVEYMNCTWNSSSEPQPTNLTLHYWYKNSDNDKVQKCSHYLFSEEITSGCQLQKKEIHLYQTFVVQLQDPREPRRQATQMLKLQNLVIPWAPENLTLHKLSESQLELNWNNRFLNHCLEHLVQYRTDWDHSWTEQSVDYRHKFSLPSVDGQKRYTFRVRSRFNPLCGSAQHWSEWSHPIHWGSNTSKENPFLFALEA
As to the kind of experiment: SPR, PD1 capture.

For assay [2], the target named is T1, IL-15Rbetagamma heterodimer. As to the kind of experiment: SPR, anti-human Fc capture.
The target of assay [3] is T2, IL-15 (human, UniProt P40933). As to the kind of experiment: SPR, anti-human Fc capture.
T2 sequence (P40933 49-162): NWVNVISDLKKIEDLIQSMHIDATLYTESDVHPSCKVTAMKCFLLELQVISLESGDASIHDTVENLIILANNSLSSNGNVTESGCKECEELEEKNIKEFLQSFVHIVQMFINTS
Assay [4] addresses T2, IL-15. As to the kind of experiment: SPR, PD1 capture. In general terms: In SPR one partner is held on a chip, and binding of the other changes the refractive index at the surface.

B1: RV36:IL-15 complex (antibody)
chain 1: QVQLVQSGAEVKKPGASVKVSCKASGYSFSSFGISWVRQAPGQGLEWLGWISAFNGYTKYAQKFQDRVTMTTDTSTSTAYMELRSLRSDDTAVYYCARDPAAWPLQQSLAWFDPWGQGTMVTVSS
chain 2: QSVLTQPPSASGTPGQRVTISCSGSTSNLKRNYVYWYQQLPGTAPKLLIYRDRRRPSGVPDRFSGSKSGTSASLAISGLRSEDEADYYCAWYDRELSEWVFGGGTKLTVL
chain 3: not shown
Usually Kd stands for the equilibrium constant for the complex coming apart. Read a high Kd as weaker binding. Regarding B1, the Kd in assay [1] is 1070 pM; in assay [2], 771 pM.

B2: RV18:IL-15 complex (antibody)
chain 1: QVQLVQSGAEVKKPGASVKVSCKASGYSFSSFGISWVRQAPGQGLEWLGWISAFNGYTKYAQKFQDRVTMTTDTSTSTAYMELRSLRSDDTAVYYCARDPAAWPLQQSLAWFDPWGQGTMVTVSS
chain 2: QSVLTQPPSASGTPGQRVTISCSGSTSNLKRNYVYWYQQLPGTAPKLLIYRDRRRPSGVPDRFSGSKSGTSASLAISGLRSEDEADYYCAWYDRELSEWVFGGGTKLTVL
chain 3: not shown
In the case of B2, the Kd is 239 pM in assay [1] and 1020 pM in assay [2].

B3: RV1 (anti-IL-15 mAb DISC0280) (antibody, V domains shown)
VH: QVQLVQSGAEVKKPGASVKVSCKASGYSFSSFGISWVRQAPGQGLEWLGWISAFNGYTKYAQKFQDRVTMTTDTSTSTAYMELRSLRSDDTAVYYCARDPAAWPLQQSLAWFDPWGQGTMVTVSS
VL: QSVLTQPPSASGTPGQRVTISCSGSTSNLKRNYVYWYQQLPGTAPKLLIYRDRRRPSGVPDRFSGSKSGTSASLAISGLRSEDEADYYCAWYDRELSEWVFGGGTKLTVL
Molecule B3 had a Kd with IL-15 [3] of 349 pM.

B4: RV1:IL-15 complex (antibody)
chain 1: QVQLVQSGAEVKKPGASVKVSCKASGYSFSSFGISWVRQAPGQGLEWLGWISAFNGYTKYAQKFQDRVTMTTDTSTSTAYMELRSLRSDDTAVYYCARDPAAWPLQQSLAWFDPWGQGTMVTVSS
chain 2: QSVLTQPPSASGTPGQRVTISCSGSTSNLKRNYVYWYQQLPGTAPKLLIYRDRRRPSGVPDRFSGSKSGTSASLAISGLRSEDEADYYCAWYDRELSEWVFGGGTKLTVL
chain 3: not shown
On to B4, for which the Kd in assay [2] is 705 pM.

B5: RV15 IL-15 arm (antibody, V domains shown)
VH: QVQLVQSGAEVKKPGASVKVSCKASGYSFSSFGISWVRQAPGQGLEWLGWISAFNGYTKYAQKFQDRVTMTTDTSTSTAYMELRSLRSDDTAVYYCARDPAAWPLQQSLAWFDPWGQGTMVTVSS
VL: QSVLTQPPSASGTPGQRVTISCSGSTSNLKRNYVYWYQQLPGTAPKLLIYRDRRRPSGVPDRFSGSKSGTSASLAISGLRSEDEADYYCAWYDRELSEWVFGGGTKLTVL
B5 displayed a dissociation constant Kd with IL-15 [3] of 108 pM.

B6: RV17:IL-15 complex (antibody)
chain 1: QVQLVQSGAEVKKPGASVKVSCKASGYSFSSFGISWVRQAPGQGLEWLGWISAFNGYTKYAQKFQDRVTMTTDTSTSTAYMELRSLRSDDTAVYYCARDPAAWPLQQSLAWFDPWGQGTMVTVSS
chain 2: QSVLTQPPSASGTPGQRVTISCSGSTSNLKRNYVYWYQQLPGTAPKLLIYRDRRRPSGVPDRFSGSKSGTSASLAISGLRSEDEADYYCAWYDRELSEWVFGGGTKLTVL
chain 3: not shown
In assay [2], B6 showed a Kd of 990 pM.

B7: RV29 IL-15 arm (antibody, V domains shown)
VH: QVQLVQSGAEVKKPGASVKVSCKASGYSFSSFGISWVRQAPGQGLEWLGWISAFNGYTKYAQKFQDRVTMTTDTSTSTAYMELRSLRSDDTAVYYCARDPAAWPLQQSLAWFDPWGQGTMVTVSS
VL: QSVLTQPPSASGTPGQRVTISCSGSTSNLKRNYVYWYQQLPGTAPKLLIYRDRRRPSGVPDRFSGSKSGTSASLAISGLRSEDEADYYCAWYDRELSEWVFGGGTKLTVL
Consider B7, for which the results for the Kd in the assay with IL-15 [3] and in the assay with IL-15 [4] were 114 pM and 339 pM, respectively.

B8: RV19 IL-15 arm (antibody, V domains shown)
VH: QVQLVQSGAEVKKPGASVKVSCKASGYSFSSFGISWVRQAPGQGLEWLGWISAFNGYTKYAQKFQDRVTMTTDTSTSTAYMELRSLRSDDTAVYYCARDPAAWPLQQSLAWFDPWGQGTMVTVSS
VL: QSVLTQPPSASGTPGQRVTISCSGSTSNLKRNYVYWYQQLPGTAPKLLIYRDRRRPSGVPDRFSGSKSGTSASLAISGLRSEDEADYYCAWYDRELSEWVFGGGTKLTVL
The molecule B8 had a Kd with IL-15 [3] of 84.7 pM.

B9: RV17 IL-15 arm (antibody, V domains shown)
VH: QVQLVQSGAEVKKPGASVKVSCKASGYSFSSFGISWVRQAPGQGLEWLGWISAFNGYTKYAQKFQDRVTMTTDTSTSTAYMELRSLRSDDTAVYYCARDPAAWPLQQSLAWFDPWGQGTMVTVSS
VL: QSVLTQPPSASGTPGQRVTISCSGSTSNLKRNYVYWYQQLPGTAPKLLIYRDRRRPSGVPDRFSGSKSGTSASLAISGLRSEDEADYYCAWYDRELSEWVFGGGTKLTVL
Molecule B9 yielded a Kd with IL-15 [3] of 106 pM.

B10: RV18 IL-15 arm (antibody, V domains shown)
VH: QVQLVQSGAEVKKPGASVKVSCKASGYSFSSFGISWVRQAPGQGLEWLGWISAFNGYTKYAQKFQDRVTMTTDTSTSTAYMELRSLRSDDTAVYYCARDPAAWPLQQSLAWFDPWGQGTMVTVSS
VL: QSVLTQPPSASGTPGQRVTISCSGSTSNLKRNYVYWYQQLPGTAPKLLIYRDRRRPSGVPDRFSGSKSGTSASLAISGLRSEDEADYYCAWYDRELSEWVFGGGTKLTVL
In the case of B10, in the assay with IL-15 [3], the equilibrium dissociation constant (Kd) was 76.9 pM.

B11: RV37 IL-15 arm (antibody, V domains shown)
VH: QVQLVQSGAEVKKPGASVKVSCKASGYSFSSFGISWVRQAPGQGLEWLGWISAFNGYTKYAQKFQDRVTMTTDTSTSTAYMELRSLRSDDTAVYYCARDPAAWPLQQSLAWFDPWGQGTMVTVSS
VL: QSVLTQPPSASGTPGQRVTISCSGSTSNLKRNYVYWYQQLPGTAPKLLIYRDRRRPSGVPDRFSGSKSGTSASLAISGLRSEDEADYYCAWYDRELSEWVFGGGTKLTVL
As for B11, the dissociation constant Kd with IL-15 [3] amounted to 66.4 pM; in the assay with IL-15 [4], 227 pM.

B12: RV26:IL-15 complex (antibody)
chain 1: QVQLVQSGAEVKKPGASVKVSCKASGYSFSSFGISWVRQAPGQGLEWLGWISAFNGYTKYAQKFQDRVTMTTDTSTSTAYMELRSLRSDDTAVYYCARDPAAWPLQQSLAWFDPWGQGTMVTVSS
chain 2: QSVLTQPPSASGTPGQRVTISCSGSTSNLKRNYVYWYQQLPGTAPKLLIYRDRRRPSGVPDRFSGSKSGTSASLAISGLRSEDEADYYCAWYDRELSEWVFGGGTKLTVL
chain 3: not shown
On to B12, for which the equilibrium dissociation constant (Kd) was found to be 1530 pM in assay [1] and 1360 pM in assay [2].

B13: RV26 IL-15 arm (antibody, V domains shown)
VH: QVQLVQSGAEVKKPGASVKVSCKASGYSFSSFGISWVRQAPGQGLEWLGWISAFNGYTKYAQKFQDRVTMTTDTSTSTAYMELRSLRSDDTAVYYCARDPAAWPLQQSLAWFDPWGQGTMVTVSS
VL: QSVLTQPPSASGTPGQRVTISCSGSTSNLKRNYVYWYQQLPGTAPKLLIYRDRRRPSGVPDRFSGSKSGTSASLAISGLRSEDEADYYCAWYDRELSEWVFGGGTKLTVL
In the assay with IL-15 [3], B13 gave a Kd of 396 pM. This counts as sub-nanomolar.

B14: RV31:IL-15 complex (antibody)
chain 1: QVQLVQSGAEVKKPGASVKVSCKASGYSFSSFGISWVRQAPGQGLEWLGWISAFNGYTKYAQKFQDRVTMTTDTSTSTAYMELRSLRSDDTAVYYCARDPAAWPLQQSLAWFDPWGQGTMVTVSS
chain 2: QSVLTQPPSASGTPGQRVTISCSGSTSNLKRNYVYWYQQLPGTAPKLLIYRDRRRPSGVPDRFSGSKSGTSASLAISGLRSEDEADYYCAWYDRELSEWVFGGGTKLTVL
chain 3: not shown
B14: the equilibrium dissociation constant (Kd) turned out to be 981 pM in assay [1] and 979 pM in assay [2].

B15: RV32:IL-15 complex (antibody)
chain 1: QVQLVQSGAEVKKPGASVKVSCKASGYSFSSFGISWVRQAPGQGLEWLGWISAFNGYTKYAQKFQDRVTMTTDTSTSTAYMELRSLRSDDTAVYYCARDPAAWPLQQSLAWFDPWGQGTMVTVSS
chain 2: QSVLTQPPSASGTPGQRVTISCSGSTSNLKRNYVYWYQQLPGTAPKLLIYRDRRRPSGVPDRFSGSKSGTSASLAISGLRSEDEADYYCAWYDRELSEWVFGGGTKLTVL
chain 3: not shown
For the molecule B15, the equilibrium dissociation constant (Kd) was 1450 pM in assay [1] and 742 pM in assay [2].

B16: RV15:IL-15 complex (antibody)
chain 1: QVQLVQSGAEVKKPGASVKVSCKASGYSFSSFGISWVRQAPGQGLEWLGWISAFNGYTKYAQKFQDRVTMTTDTSTSTAYMELRSLRSDDTAVYYCARDPAAWPLQQSLAWFDPWGQGTMVTVSS
chain 2: QSVLTQPPSASGTPGQRVTISCSGSTSNLKRNYVYWYQQLPGTAPKLLIYRDRRRPSGVPDRFSGSKSGTSASLAISGLRSEDEADYYCAWYDRELSEWVFGGGTKLTVL
chain 3: not shown
In the case of B16, the figures for the equilibrium dissociation constant (Kd) in assay [1] and in assay [2] were 722 pM and 804 pM, respectively.

B17: RV29:IL-15 complex (antibody)
chain 1: QVQLVQSGAEVKKPGASVKVSCKASGYSFSSFGISWVRQAPGQGLEWLGWISAFNGYTKYAQKFQDRVTMTTDTSTSTAYMELRSLRSDDTAVYYCARDPAAWPLQQSLAWFDPWGQGTMVTVSS
chain 2: QSVLTQPPSASGTPGQRVTISCSGSTSNLKRNYVYWYQQLPGTAPKLLIYRDRRRPSGVPDRFSGSKSGTSASLAISGLRSEDEADYYCAWYDRELSEWVFGGGTKLTVL
chain 3: not shown
Turning to B17, the Kd was 720 pM in assay [1] and 732 pM in assay [2].

B18: RV19:IL-15 complex (antibody)
chain 1: QVQLVQSGAEVKKPGASVKVSCKASGYSFSSFGISWVRQAPGQGLEWLGWISAFNGYTKYAQKFQDRVTMTTDTSTSTAYMELRSLRSDDTAVYYCARDPAAWPLQQSLAWFDPWGQGTMVTVSS
chain 2: QSVLTQPPSASGTPGQRVTISCSGSTSNLKRNYVYWYQQLPGTAPKLLIYRDRRRPSGVPDRFSGSKSGTSASLAISGLRSEDEADYYCAWYDRELSEWVFGGGTKLTVL
chain 3: not shown
In turn, B18 returned a Kd in assay [2] of 1170 pM.
